Several values for one entry are separate records, joined by “and”; a condition that tells them apart may be missing. Identical values can stand only once. Entries after “also recorded” stand apart in the source; their conditions may differ.
Columns and labels:
[1] = test system: SR8D8 expressing transporter; experiment: Transporter screening for growth on glucose or xylose (Bioscreen C); assay type: cell-based, S. cerevisiae; details: glucose or xylose containing medium, OD600
Procedure: ScGal2 expressing SR8D8 were used as a positive control (FIG. 3). Most of the AtSWEETs and putative oleaginous transporters expressing strains were not able to grow on glucose or xylose.
(§1) A xylose fermenting S. cerevisiae yeast (SR8) with HXT1-7Δ, GAL2Δ deletions was used for transporter screening and characterization (SR8D8). SR8D8 was grown in YPE medium/plate (10 g/L yeast extract, 20 g/L peptone, and 5 g/L ethanol). […] SRD8 strains transformed with plasmid containing KanMX marker conferring resistance to G418 (geneticin) were propagated on YPE supplemented with 200 μg/ml of geneticin. For growth and flask fermentation experiments all media was supplemented with 200 μg/ml of geneticin for plasmid maintenance. Biomass was calculated from the OD600 measured using a Biomate 5 UV-visible spectrophotometer (Fisher, NY, USA). All growth rates were measured using a Bioscreen C plate reader system (Growth Curves USA, Piscataway, NJ, USA). A 2 μL inoculum of fully grown culture was added into 200 μL YP (+200 μg/ml Geneticin) with varying concentrations of different sugars. A wide band filter (420-580 nm) was used to measure optical density. Bioscreen C values represent mean value from three biological replicates. In all cases, the Bioscreen C was set to maintain a temperature of 30° C. and high aeration through high continuous shaking.

[2] = test system: SR8D8 expressing transporter; experiment: Sole glucose or xylose flask fermentation; assay type: cell-based, S. cerevisiae; details: glucose or xylose conditions, YP medium
Procedure: (§2) For flask fermentation, a single colony was inoculated to 5 or 25 mL YPE ([…], 1% w/v yeast extract, 2% peptone, 5% ethanol) supplemented with 200 μg/ml of geneticin to obtain seed cultures. […] Flask fermentations were maintained at 30° C. and 250 rpm.
as §1

[3] = test system: transporter-overexpressing SR8D8; experiment: Inhibition of xylose uptake by glucose; assay type: cell-based, S. cerevisiae; details: 25 mM or 100 mM glucose
Procedure: SR8D8 containing the respective plasmid was grown on selective YPE medium to an OD600 of 1-1.5, harvested by centrifugation, and washed twice in ice-cold uptake buffer (100 mM potassium phosphate, pH 6.5). C14 labeled sugar uptake assay was done according to Boles and Oreb. Radioactivity was analyzed in a Beckman-Coulter LS6500 multi-purpose liquid scintillation counter (Beckman-Coulter, CA, USA).
Sugar solutions contained 0.135-0.608 μCi of D-[U-^14C]-glucose (290-300 mCi/mmol) or D-[1-^14C]-xylose (55 mCi/mmol) (PerkinElmer, MA, USA). Calculation of Km (Michaelis constant), Vmax (maximal initial uptake velocity), and K (inhibitor constant for competitive inhibition) was done by nonlinear regression analysis and global curve fitting in Prism 7 (GraphPad Software) with values of three independent measurements.

[4] = test system: SR8D8 expressing transporter; experiment: Glucose and xylose mixed sugar flask fermentation (20 g/L each); assay type: cell-based, S. cerevisiae; details: 20 g/L of glucose and xylose, YP medium
Procedure: as §2, §1

[5] = test system: SR8D8 expressing transporter; experiment: Mixed sugar fermentation at industrially relevant sugar concentrations; assay type: cell-based, S. cerevisiae; details: 7% glucose and 4% xylose (70 g/L, 40 g/L)
Procedure: as §2

[6] = substrate: OC[C@H]1OC(O)[C@H](O)[C@@H](O)[C@@H]1O; experiment: cells, lysate or membranes; details: other: initial glucose uptake (5 s), 30° C., pH 6.5, 0.2 to 100 mM glucose, ± SEM in Table 1

B1: Arabidopsis thaliana AtSWEET7 transporter, wild type (Table 2: SEQ ID NO: 3; FIG. 12: SEQ ID NO:2) (Arabidopsis thaliana) (protein)
chain: MVFAHLNLLRKIVGIIGNFIALCLFLSPTPTFVRIVKKKSVEEYSPIPYLATLINCLVWVLYGLPTVHPDSTLVITINGTGILIEIVFLTIFFVYCGRQKQRLIISAVIAAETAFIAILAVLVLTLQHTTEKRTMSVGIVCCVFNVMMYASPLSVMKMVIKTKSVEFMPFWLSVAGFLNAGVWTIYALMPFDPFMAIPNGIGCLFGLAQLILYGAYYKSTKRIMAERENQPGYVGLSSAIARTGSEKTANTNQEPNNV
- growth / transport capacity on glucose or xylose [1]: substantial growth on xylose and glucose; also recorded: both glucose and xylose transport capacity
- growth / transport capacity on glucose or xylose ([1]; listed as SWEET7): capable of sustaining an efficient growth on glucose or xylose
- sole sugar fermentation performance [2]: enabled glucose and xylose fermentation, depleting all provided sugars
- inhibition of xylose transport by glucose (in words) [3]: do not have any xylose transport inhibition in the presence of both 25 mM and 100 mM glucose
- glucose and xylose mixed sugar fermentation phenotype [4]: simultaneous co-consumption of glucose and xylose with almost the same rates of sugar consumption; also recorded: true co-fermentation phenotype
- glucose and xylose mixed sugar fermentation phenotype ([4]; listed as SWEET7): simultaneously utilize glucose and xylose
- mixed sugar utilization profile at high sugar [5]: co-consumption of glucose and xylose even at higher glucose concentrations
- Km [6]: 75 mM and 74.1 ± 13.0 mM

B2: LST1_205437: Lipomyces starkeyi LST1 transporter polypeptide, SEQ ID NO:4, GenBank ODQ75362.1 (protein)
chain: MGFLGFLNRSQASEPVEKESTATTPSEGRTPQRPLSPAVGVPLEQDFETQLSAKDAPLLAFILGGVASVGGFMFGYQTGQISGFLEMSDFKTRFAACNSQTGQCTFSAARQGTIVGLFSIGTLIGSLIAAPIADRIGRRLTISFWAFFFMIGTVLEISSSHVWVQFAMGRFVGGLGIGALSVVVPMYQSESTPRMIRGVIVSSYQLMVTLGIWLAYMINWGTESLQGSQSWRITNGMSFLWALVLGIAILGLPESPRYAYRVGREEEARKNMARLYKLSPNHPIINLEIQEIQEKLDAERVGGDHPWYEIFTGPRMLYRTILGMVLQAGQQLTGANYFFYYGTTVFSATGLSNSYVTQIILGSVNVGGTIAGLWLIENCGRRKALMGGAAWMFMCFMVFAFVGHFSLDHQNPEATPQAGAALVVFSCLFIIAFAMTWGPIVWAIVGELYPARYRATCMGLATSSNWLFNFLIGFFTTFITGDIDYLYGLVFAGCCFALFFIVYFFVIETKGRSLEEIDTMYVLHVNPINSAKWDSSQLMRDGDGLVNTDDLYLEAGGNRFAKDEHSAHEMIPSHDENAPGPSHTSHADIEKAESSGAESRDAL
modifications: Lipomyces starkeyi LST1_204537 transporter polypeptide
- growth / transport capacity on glucose or xylose [1]: substantial growth on xylose and glucose; also recorded: capable of sustaining an efficient growth on glucose or xylose
- sole sugar fermentation performance [2]: enabled glucose and xylose fermentation, depleting all provided sugars
- inhibition of xylose transport by glucose (in words) [3]: partial inhibition of xylose uptake by glucose
- glucose and xylose mixed sugar fermentation phenotype [4]: co-consumption of glucose and xylose; also recorded: partial co-fermentation; also recorded: simultaneously utilize glucose and xylose
- mixed sugar utilization profile at high sugar [5]: partial xylose and glucose co-consumption

Source: US12686846B2, “Plant sweet and yeast MSF transporter capable of transporting different sugars simultaneously” (THE BOARD OF TRUSTEES OF THE UNIVERSITY OF ILLINOIS, priority 2020, dated 2026)
